# Results from patent US20230302100A1.
# Legend:
# [1] = molecular target: adalimumab (Humira); assay: cell-based or functional assay
# [2] = molecular target: denosumab (XGEVA); assay: cell-based or functional assay
substance,measurement,setting,value
pCART144 (IdeZ with N terminal methionine and histidine tag) (enzyme),"IgG1 (adalimumab) cleavage, SDS-PAGE titration: enzyme concentration of equal cleavage",[1],4.6 ng/mL
same,"IgG2 (denosumab) cleavage, SDS-PAGE titration: enzyme concentration giving a dominating F(ab')2 band",[2],3.3 µg/mL
same,"IgG2 (denosumab) cleavage, SDS-PAGE titration: enzyme concentration giving a single intense scIgG band",[2],0.12 µg/mL
